# Assay results reported in patent US20190270793A1 (Janssen / Centocor, published 2019).
# Positions count from the first letter of the chain named.
# B1: PT82 mAb, recombinantly expressed (mouse IgG2a/kappa) (antibody, V domains shown)
# VH: EVKLEESGGGLVQPGGSMKLSCVASGFTFSNYWMNWIRQSPEKGLEWVAQIRLQSDNYATRYAESVKGRFTISRDESKTSVYLQMNNLRTEDTGIYYCTGGTTYWGQGTLVTVSA
# VL: DIVMTQSQKFMSTSVGDRVSITCKASQNVGTAVAWYQQKPGQSPKLLIYSASIRYTGVPDRFTGSGSGTDFTLTINYMQSEDLADYFCQQFSSYPYTFGGGTKLEIK
# notes: also called recombinant PT82; murine PT82
# B2: PT1B779 (humanized PT82, full length IgG1) (antibody, V domains shown)
# VH: EVQLVESGGGLVQPGGSLRLSCAASGFTFSNYWMNWIRQAPGKGLEWVGQIRLQDDNYATRYAASVKGRFTISRDDSKNSVYLQMNSLKTEDTAVYYCTGGTTYWGQGTLVTVSS
# VL: DIQMTQSPSFLSASVGDRVTITCKASQNVGTKVAWYQQKPGKAPKLLIYSASIRYTGVPSRFSGSGSGTEFTLTISSMQPEDFATYYCQQFSSYPYTFGQGTKLEIK
# B3: PT1B778 (humanized PT82, full length IgG1) (antibody, V domains shown)
# VH: B2 VH with D55S, A59V
# VL: B2 VL with K32R
# B4: PT1B780 (humanized PT82, full length IgG1) (antibody, V domains shown)
# VH: B2 VH with D55S, V81L
# VL: B2 VL with M78L
# B5: PT1B781 (humanized PT82, full length IgG1) (antibody, V domains shown)
# VH: B2 VH with D55R
# VL: B2 VL
# B6: PT1B782 (humanized PT82, full length IgG1) (antibody, V domains shown)
# VH: B2 VH with D55Y
# VL: B2 VL with M4L
# B7: PT82 from hybridoma supernatant (hybridoma-produced mouse monoclonal antibody) (antibody, V domains shown)
# VH: B1 VH
# VL: B1 VL
# notes: This is the native hybridoma antibody; also called hybridoma produced PT82
# B8: PT82 Fab (chimeric: mouse variable domains on human IgG1/kappa constant domains, His tag at the C-terminus of the heavy chain) (Fab, V domains shown)
# VH: B1 VH
# VL: B1 VL
# notes: The Fab has mouse variable domains fused to human IgG1/kappa constant domains, with a His tag at the C-terminus of the heavy chain; also called Fab fragment of PT82
# How the values were obtained:
# [1] = target: T1, PHF-tau (paired helical filament-tau), partially purified from postmortem cortex of an Alzheimer patient (human, UniProt P10636-8 2-441, limits assumed, hyperphosphorylated (sites not given)); experiment: SPR (ProteOn XPR36 or Biacore T200)
# T1 construct: This is an aggregated, hyperphosphorylated brain-derived preparation, not a single defined chain
# [2] = target: T2, soluble tau (control tau; recombinant 2N4R tau, SEQ ID NO:31) (human, UniProt P10636 2-758); experiment: direct ELISA on 2N4R tau coated at 1 ng/mL, O.D. 450 nm
# T2 construct: also called Sol-tau; recombinant WT tau
# Description: (§1) Binding to recombinant WT (2N4R; SEQ ID NO:31) tau was analyzed by ELISA where full-length Tau protein (1 ng/mL or 10 ng/mL) was directly coated to the plate and incubated with different concentrations of either recombinantly- or hybridoma produced PT82 antibody (FIG. 2). After incubation with antibodies, plates were again washed and 50 μL per well of HRPO labelled anti-mouse antibody (GE Healthcare) (diluted 1:10000 in blocking buffer) was added. After another washing step detection was performed with “One step” TMB (Thermo Scientific) according to the manufacturers' instructions. Plates were analysed in EnVision® 2102 Multilabel Reader (Perkin Elmer, Waltham, Mass., USA). Binding curves were generated using GraphPad Prism7.0 software. […] No substantial difference has been observed between binding profiles of recombinant and hybridoma produced antibodies.
# [3] = target: T2, soluble tau (control tau; recombinant …); experiment: direct ELISA on 2N4R tau coated at 10 ng/mL, O.D. 450 nm
# Description: as §1
# [4] = target: T3, 103 122 …; experiment: pepscan-based ELISA on the array of linear 20-mer Tau441 peptides
# T3 construct: Linear 20-mer made on the solid support of the pepscan array
# T3 peptide: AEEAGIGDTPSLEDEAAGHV
# Description: (§2) The binding of antibodies (recombinantly expressed as IgG2a) to each of the synthesized peptides was tested in a pepscan-based ELISA. The peptide arrays were incubated with primary antibody solution (overnight at 4° C.). After washing, the peptide arrays were incubated with a 1/1000 dilution of an appropriate antibody peroxidase conjugate (SBA) for one hour at 25° C. After washing, the peroxidase substrate 2,2′-azino-di-3-ethylbenzthiazoline sulfonate (ABTS) and 20 μl/ml of 3 percent H2O2 were added. After one hour, the color development was measured. The color development was quantified with a charge coupled device (CCD)—camera and an image processing system.
# [5] = target: T4, 121 140 …; experiment: as above
# T4 construct: Linear 20-mer made on the solid support of the pepscan array; also called Tau441 peptide 121-140
# T4 peptide: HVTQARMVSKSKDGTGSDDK
# Description: as §2
# [6] = target: T5, 105 124 …; experiment: as above
# T5 construct: Linear 20-mer made on the solid support of the pepscan array; also called Tau441 peptide 105-124
# T5 peptide: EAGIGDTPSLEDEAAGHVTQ
# Description: as §2
# [7] = target: T6, 107 126 …; experiment: as above
# T6 construct: Linear 20-mer made on the solid support of the pepscan array; also called Tau441 peptide 107-126
# T6 peptide: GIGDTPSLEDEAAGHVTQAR
# Description: as §2
# [8] = target: T7, 109 128 …; experiment: as above
# T7 construct: Linear 20-mer made on the solid support of the pepscan array; also called Tau441 peptide 109-128
# T7 peptide: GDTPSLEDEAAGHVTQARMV
# Description: as §2
# [9] = target: T8, 111 130 …; experiment: as above
# T8 construct: Linear 20-mer made on the solid support of the pepscan array; also called Tau441 peptide 111-130
# T8 peptide: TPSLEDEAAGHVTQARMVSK
# Description: as §2
# [10] = target: T9, 113 132 …; experiment: as above
# T9 construct: Linear 20-mer made on the solid support of the pepscan array; also called Tau441 peptide 113-132
# T9 peptide: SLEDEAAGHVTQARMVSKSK
# Description: as §2
# [11] = target: T10, 115 134 …; experiment: as above
# T10 construct: Linear 20-mer made on the solid support of the pepscan array; also called Tau441 peptide 115-134
# T10 peptide: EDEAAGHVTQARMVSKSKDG
# Description: as §2
# [12] = target: T11, 117 136 …; experiment: as above
# T11 construct: Linear 20-mer made on the solid support of the pepscan array; also called Tau441 peptide 117-136
# T11 peptide: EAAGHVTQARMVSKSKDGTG
# Description: as §2
# [13] = target: T12, 119 138 …; experiment: as above
# T12 construct: Linear 20-mer made on the solid support of the pepscan array
# T12 peptide: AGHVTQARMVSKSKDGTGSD
# Description: as §2
# [14] = target: T2, soluble tau (control tau; recombinant …); experiment: ELISA on coated soluble tau, anti-human Fc:HRP, 5-fold dilutions from 5 ug/ml
# Description: Colonies from this electroporation were picked for the ELISA screen and assessment of Fab expression. Briefly, Maxisorp 96 well plates were coated with soluble Tau protein. Fab colonies were grown in 2×YT media and Fab expression was induced with IPTG. ELISA plates were washed and Fab secreted into the E. coli media was added to each ELISA plate. Plates were washed and Anti-Fab′2:HRP (Jackson ImmunoResearch) was added to the ELISA plates. Plates were washed and chemiluminescent detection reagent was added and plates were read on a Perkin Elmer EnVision plate reader for luminescence.
# Positive clones were sequenced in both VH and VL. Unique sequences were cloned into IgG gene expression constructs for expression and purification as full length IgG1 molecules. IgG constructs were transfected into CHO-Expi cells and IgG protein was purified using MabSelectSure resin. Antibodies were then tested in an ELISA for binding to soluble Tau, using anti-human Fc:HRP (Jackson ImmunoResearch), to detect IgG binding.
# The ELISA was done as described for Fabs except that antibodies were tested at five 5-fold dilutions starting at 5 μg/mL in PGS and anti-human Fc:HRP (Jackson ImmunoResearch) was used to detect IgG binding.
# [15] = target: T2, soluble tau (control tau; recombinant …); experiment: SPR (ProteOn XPR36 or Biacore T200); central value of the cell
# T2 sequence (P10636 other isoform, or with tags, fused parts or gaps limits assumed): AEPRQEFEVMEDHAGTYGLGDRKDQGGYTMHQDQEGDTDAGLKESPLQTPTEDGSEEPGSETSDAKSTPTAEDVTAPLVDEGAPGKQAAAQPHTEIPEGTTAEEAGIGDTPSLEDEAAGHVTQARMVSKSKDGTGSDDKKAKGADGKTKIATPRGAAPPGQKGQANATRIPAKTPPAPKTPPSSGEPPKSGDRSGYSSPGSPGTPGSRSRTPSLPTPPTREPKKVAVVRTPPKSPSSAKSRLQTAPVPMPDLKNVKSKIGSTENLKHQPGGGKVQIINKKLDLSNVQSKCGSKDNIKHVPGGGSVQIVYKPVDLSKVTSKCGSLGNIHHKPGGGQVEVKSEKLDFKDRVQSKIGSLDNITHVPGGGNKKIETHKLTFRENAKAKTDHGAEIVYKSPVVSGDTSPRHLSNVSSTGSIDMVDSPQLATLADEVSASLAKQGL
# T1 sequence (P10636 other isoform, or with tags, fused parts or gaps limits assumed): as above
binder,measurement,setting,value
B1,Kd,[1],2.85 nM
same,EC50 (read off the curve),[2],~0.05 µg/mL
same,EC50 (read off the curve),[3],~0.01 µg/mL
same,pepscan ELISA signal (PT82),[4],68
same,pepscan ELISA signal (PT82),[5],68
same,pepscan ELISA signal (PT82),[6],2900
same,pepscan ELISA signal (PT82),[7],2920
same,pepscan ELISA signal (PT82),[8],2920
same,pepscan ELISA signal (PT82),[9],2930
same,pepscan ELISA signal (PT82),[10],2930
same,pepscan ELISA signal (PT82),[11],2920
same,pepscan ELISA signal (PT82),[12],2920
same,pepscan ELISA signal (PT82),[13],2910
B2,binding result,[14],binds
B3,binding result,[14],binds
B4,binding result,[14],binds
B5,binding result,[14],binds
B6,binding result,[14],binds
B7,EC50 (read off the curve),[2],~0.02 µg/mL
same,EC50 (read off the curve),[3],~0.004 µg/mL
B8,Kd,[1],5.01 nM
same,Kd,[15],1.84 nM
